What was measured:
[1] = bioluminescence assay of recombinant symplectin protein with dehydrocoeleneterazine; format: biochemical, Symplectoteuthis oualaniensis; details: complex with dehydrocoeleneterazine, 37° C. for 30 min, alkaline buffer (pH9.8) added
Protocol: The PCR products were separated on an agarose gel succeeded by digestion with EcoRI and SalI. Then it was ligated to EcoRI and SalI site of pET-32a(+) to construct a vector. The vector was designated pET-60 and it was utilized for expression of symplectin protein. The E. coli strain BL21(DE3)pLysS, transformed by pET-60, was grown in Luria broth (LB) at 37° C. Expression of the protein was induced by addition of isopropyl-1-thio-b-D-galactopyranoside (IPTG). The cells were harvested by centrifugation and lysed by sonication in a buffer. The homogenate was centrifuged, and the supernatant was subjected to affinity chromatography using His-Bind Resin. The fusion protein with thioredoxin was purified by a step-wise manner elution with varied imidazole concentrations. The recombinant symplectin protein was obtained as a fusion protein with thioredoxin, according to the manipulation described above. The recombinant symplectin protein was subjected to bioluminescence assay. The recombinant symplectin protein was suspended in a buffer, mixed with chromophore dehydrocoeleneterazine, then protein-chromophore complex was formed by incubation at 37° C. for 30 min. The alkaline buffer (pH9.8) was added to increase pH of the protein-chromophore complex solution and the bioluminescence reaction was initiated. […]

[2] = luminescent ability of purified photoprotein and its trypsin fragments; format: biochemical, Symplectoteuthis oualaniensis; details: purified protein before and after trypsin digestion
Description: From photogenic organ of okinawan squid, collected at the sea area of Okinawa Prefecture Japan, the photoprotein having a molecular mass of 60 kDa was separated and purified as a luminescent ability as an index. This photoprotein was soluble in a solution containing KCl at a concentration of more than 0.6M. At first, homogenate of the photogenic organ containing symplectin was washed by KCl solution (pH 6.0) of 0.4M. Then, it was extracted with a KCl solution of 0.6M, and a portion thereof was added to a buffer having pH of 8.0 to confirm the luminescent ability. Because of high salt concentration, means of chromatography applicable for purification of the extract was limited. When the purified protein was hydrolyzed by trypsin, two products having molecular masses of 40 kDa and 15 kDa were produced from the original protein of 60 kDa (FIG. 2). […] Fragments of 40 kDa and 15 kDa were recognized after trypsin digestion, particularly in lane 3 corresponding to the purified protein. […] However, the amino acid sequence of the 15 kDa protein was the same as the N-terminal amino acid sequence of the 60 kDa protein. […] Incidentally, the active region responsible for the photogenic function would exist at the C-terminal portion corresponding to the 40 kDa protein.

[3] = enzymatic characteristics and cation trigger of luminescence; format: biochemical, Symplectoteuthis oualaniensis; details: different from aequorin
Description: The photoprotein of okinawan squid has a low solubility and there is no conventional method for research of the protein. When a surfactant to solubilize the membrane protein is used, luminescent activity of the okinawan squid photoprotein would be disrupted. By addition of KCl (a caotropic salt) to a buffer, the protein can be solubilized without disrupting its activity. The effects of various kinds of salts on the objective protein are examined in the terms of extraction efficiency and luminescent activity. […] Enzymatic characteristic of okinawan squid was investigated. […] (Isobe M. et al., Pure and Appl. Chem., (1998) Vol.70, 2085-2092).

[4] = format: physicochemical, Symplectoteuthis oualaniensis
Description: The photoprotein of okinawan squid has a low solubility and there is no conventional method for research of the protein. When a surfactant to solubilize the membrane protein is used, luminescent activity of the okinawan squid photoprotein would be disrupted. By addition of KCl (a caotropic salt) to a buffer, the protein can be solubilized without disrupting its activity. The effects of various kinds of salts on the objective protein are examined in the terms of extraction efficiency and luminescent activity. […] Enzymatic characteristic of okinawan squid was investigated. […] (Isobe M. et al., Pure and Appl. Chem., (1998) Vol.70, 2085-2092). From photogenic organ of okinawan squid, collected at the sea area of Okinawa Prefecture Japan, the photoprotein having a molecular mass of 60 kDa was separated and purified as a luminescent ability as an index. This photoprotein was soluble in a solution containing KCl at a concentration of more than 0.6M. At first, homogenate of the photogenic organ containing symplectin was washed by KCl solution (pH 6.0) of 0.4M. Then, it was extracted with a KCl solution of 0.6M, and a portion thereof was added to a buffer having pH of 8.0 to confirm the luminescent ability. Because of high salt concentration, means of chromatography applicable for purification of the extract was limited.

B1: recombinant symplectin protein: recombinant symplectin expressed in E. coli from pET-60 as a fusion protein with thioredoxin (protein)
chain: FEHQVIPPKTDMETREEALDALKLNSDVYHEAVLESRSKGVKMIVFPEYGLYDINTLTRTRMDLMAEKVPHPKHGHRNPCDEPEYQTQSSEMLRTFSCMAKENDMYMVVNMAGREPCRRATEPECPGDKQLLYNTNVAFNNEGDVVARYYKTHLFWEEGWFNSSKNYEMALWDTPIGKFGTFMCFDFQAVQLIEQYNVRHIAYPASWVNLPPIYQSIQSHSAFARFAKINLLAASVHRLETSTYGSGIYSPNGAEIFYFRPDIPKSKLLVAEILPIHVKKPEQTVVNKDNPVFPSEDDDVQDLFDRGDFAFLKYKRMTTRAGTVEVCQKSFCCKARYAVKDRFKEVYAVGVYDGLLSAGANNLYFQICTVIQCPHKKCGLKISKVRTHFKYLNLRADGWLDRYVFPSYTVMYNNYIALDPFVWNYTVAGGIETKPGTSTPLHSANLVARIYAKDSSKHVHQPHPIDEGVIKMAVKYMLYVMAAYVYAAS
modifications: left off: large carriers; things letters cannot carry
notes: recombinant symplectin expressed in E. coli from pET-60 as a fusion protein with thioredoxin
**Q.** With B1 as the molecule, how does the “luminescence monitored by lumiphotometer” value [1] read?
**A.** obvious luminescence was detected

B2: 40 kDa protein: 40 kDa trypsin fragment of symplectin, C-terminal portion, SEQ ID NO:2 (protein, listed as Symplectoteuthis oualaniensis)
chain: ATEPECPGDKQLLYNTNVAFNNEGDVVARYYKTHLFWEEGWFNSSKNYEMALWDTPIGKFGTFMCFDFQAVQLIEQYNVRHIAYPASWVNLPPIYQSIQSHSAFARFAKINLLAASVHRLETSTYGSGIYSPNGAEIFYFRPDIPKSKLLVAEILPIHVKKPEQTVVNFDNPVFPSEDDDVQDLFDRGDFAFLKYKRMTTRAGTVEVCQKSFCCKARYAVKDRFKEVYAVGVYDGLLSAGANNLYFQICTVIQCPHKKCGLKISKVRTHFKYLNLRADGWLDRYVFPSYTVMYNNYIALDPFVWNYTVAGGIETKPGTSTPLHSANLVARIYAKDSSKHVHQPHPIDEGVIKMAVKYMLYVMAAYVYAAS
**Q.** Which “ability to emit luminescence” value [2] does the source give for B2 here?
**A.** exhibited luminescence

**Q.** What about the “ability to emit luminescence” value ([2]; listed as 40 kDa fragment) of the same molecule?
**A.** exhibited photogenic activity

B3: symplectin: photoprotein derived from okinawan squid (Symplectoteuthis oualaniensis), 501 amino acids, SEQ ID NO:1 (protein, listed as Symplectoteuthis oualaniensis)
chain: YVRPVSSWKVAVFEHQVIPPKTDMETREEALDALKLNSDVYHEAVLESRSKGVKMIVFPEYGLYDINTLTRTRMDLMAEKVPHPKHGHRNPCDEPEYQTQSSEMLRTFSCMAKENDMYMVVNMAGREPCRRATEPECPGDKQLLYNTNVAFNNEGDVVARYYKTHLFWEEGWFNSSKNYEMALWDTPIGKFGTFMCFDFQAVQLIEQYNVRHIAYPASWVNLPPIYQSIQSHSAFARFAKINLLAASVHRLETSTYGSGIYSPNGAEIFYFRPDIPKSKLLVAEILPIHVKKPEQTVVNKDNPVFPSEDDDVQDLFDRGDFAFLKYKRMTTRAGTVEVCQKSFCCKARYAVKDRFKEVYAVGVYDGLLSAGANNLYFQICTVIQCPHKKCGLKISKVRTHFKYLNLRADGWLDRYVFPSYTVMYNNYIALDPFVWNYTVAGGIETKPGTSTPLHSANLVARIYAKDSSKHVHQPHPIDEGVIKMAVKYMLYVMAAYVYAAS
**Q.** What does the source list for B3?
**A.** triggering of luminescence by a divalent cation [3]: not triggered by a divalent cation; KCl concentration of solution in which the photoprotein is soluble [4]: more than 0.6 M; solubility into an aqueous solution [4]: low; ability to emit luminescence [2]: exhibited luminescence
